Test results from patent publication US9987329B2, “Methods for treating peripheral nerve damage” (Cornell University, priority 2014, dated 2018).

Tested on: corneal nerves of C57BL/6 and Vegf-b−/− mice
Test: Corneal nerve regeneration after epithelial debridement, subconjunctival injection
Format: in vivo, mouse
Settings: 0.5 ng subconjunctival single bolus, 7 days after debridement
Experimental: Wild type C57BL/6 and Vegf-b^-/- mice were subject to corneal epithelial debridement as described above or left intact. A 5 ul volume containing 0.5 ng VEGF-B^186 in PBS was injected subconjunctivally, at the lateral temporal bulbar conjunctiva, using a 10-μl micro-syringe (Hamilton Co). Equal volume of 0.1% bovine serum albumin (BSA) was used in control mice. The recovery of the corneal epithelial injury was imaged at 24, 40 and 48 hours by applying 1% fluorescein solution to the corneal surface and wounds photographed under diffuse cobalt blue light attached to a slit lamp bio-microscope (Nikon FS-3, Nikon) connected to a digital camera (Canon EOS 60D). The corneal epithelial defect areas were quantified by analyzing the images with Photoshop CS4 (Adobe). Corneas were harvested after one week for immunodetection of nerves. Possible growth of blood vessel into the cornea was monitored by slit lamp examination. […] The YFP fluorescent nerves were imaged with a fluorescence microscope at the site of pellet implantation and at a site 180 degrees opposite to the pellet. Images were analyzed using Neurolucida. […] Quantification of corneal nerves regeneration was obtained from corneal wholemount images traced and analyzed with Neurolucida 9 software. […] Central and peripheral cornea nerve densities were calculated and expressed as a percentage of control.

B1: recombinant mouse VEGF-B^186 (protein, listed as Homo sapiens)
chain: MSPLLRRLLLAALLQLAPAQAPVSQPDAPGHQRKVVSWIDVYTRATCQPREVVVPLTVELMGTVAKQLVPSCVTVQRCGGCCPDDGLECVPTGQHQVRMQILMIRYPSSQLGEMSLEEHSQCECRPKKKDSAVKPDRAATPHHRPQPRSVPGWDSAPGAPSPADITHPTPAPGPSAHAAPSTTSALTPGPAAAAADAAASSVAKGGA
notes: vascular endothelial growth factor B; recombinant mouse VEGF-B186 (R&D 767-VE-010)
Vegf-b−/− mice
  corneal nerve regeneration into the injured zone: confined to the peripheral cornea
wild-type mice
  corneal nerve regeneration into the injured zone: enhanced nerve regeneration in both the central and peripheral corneas
